Results taken from patent US9539289B2, “Immunostimulatory compositions and methods of manufacture” (APIMED MEDICAL HONEY LIMITED, priority 2012, dated 2017).

Columns and labels:
apisimin = target: T1, apisimin (Apis mellifera, UniProt Q8ISL8); assay: Dot blot assay of apisimin self binding versus insulin and bovine albumin (Example 1, FIG. 1); details: darker colour means greater binding
T1 sequence (Q8ISL8 25-78): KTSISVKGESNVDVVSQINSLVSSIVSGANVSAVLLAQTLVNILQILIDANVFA
Experimental: FIG. 1 illustrates the results of a dot blot assay to test the self binding properties of apisimin against two other proteins not know to be self binding being insulin and bovine albumin. 1=apisimin, 2=insulin, 3=bovine albumin. The darker the colour the greater the degree of binding;
An experiment was conducted to confirm the self-binding nature of apisimin versus other peptides being insulin and bovine albumin.

monocyte cell line = assay: TNF-α response of a monocyte cell culture after 4 hours of treatment (Examples 3, 5-8); type: cell-based; details: 100 ng/ml dose
Experimental: The immunostimulatory effect was then tested using a variety of samples. Prior to the trial a monocyte cell culture was produced in order to eliminate any natural variation errors. The monocyte culture was then stimulated using a variety of agents and TNF-α concentration measured after 4 hours of treatment with the various reagents.
LPS was used as a positive control being a known and strongly significant stimulant. Cells alone were used as a negative control.
The immunostimulatory effect was tested further using a variety of samples including royal jelly. Prior to the trial a monocyte cell culture was produced in order to eliminate any natural variation errors. The monocyte culture was then stimulated using a variety of agents and TNF-α concentration measured after 4 hours of treatment with the various reagents.
The immunostimulatory effect was tested further using a variety of honey derived AGP compounds and apisimin. […] The monocyte culture was then stimulated using a variety of agents and TNF-α concentration measured after 4 hours of treatment with the various reagents.
The immunostimulatory effect was tested further using a honey derived AGP compound, apisimin and Polymyxin B acting as an LPS inhibitor. […] The monocyte culture was then stimulated using a variety of agents and TNF-α concentration measured after 4 hours of treatment with the various reagents. […]

Substance | self binding (dot blot colour) (apisimin) | TNF-α response (monocyte cell line)
albumin: bovine albumin, comparison protein not known to be self binding | weak or not self binding | 
lipopolysaccharide [LPS] |  | approximately 1700 μg/ml
insulin: comparison protein not known to be self binding | weak or not self binding | 
